According to patent publication US8541367B2, “Plasma anti-diabetic NUCB2 peptide (pladin) and uses thereof” (Landing Biotech, Inc., priority 2009, dated 2013):
Changes are numbered by the printed parent chain.

Legend:
db/db mice = assay: Blood glucose of db/db mice after injection of test substance; type: in vivo, mouse; details: for anti-hyperglycemic effect (blood glucose): peripheral/i.v. injection, db/db, dose not stated; for active duration of anti-hyperglycemic effect in vivo: i.v. injection, hyperglycemic db/db mice
plasmin = plasmin (Homo sapiens, UniProt P00747); assay: Incubation with plasmin in vitro (proteolysis); type: biochemical; details: incubated with plasmin in vitro
Source text: The recovery of hypothalamic nesfatin-1 in plg^−/−lepr^−/− was consistent to its normalization in food intake and body weight. Fasted mice always had less nesfatin-1 in hypothalamus than their freely feeding counterparties (FIG. 2b). Furthermore, plasminogen deficiency provided a unique approach to study the chronic effect of elevated nesfatin-1 in hyperphagic obese animals, which was impossible for the i.c.v. or i.p. administration due to the short half-time of nesfatin-1. Consequently, agrp and npy were found reduced in plg^−/−lepr^−/−, while pomc was elevated compared with plg^+/+lepr^−/− (FIG. 3), contradicting to the previous report that i.c.v. nesfatin-1 didn't alter the expression of pomc, npy and agrp. Consistent to the present finding, the same group reported the up-regulation of pomc by i.p. nesfatin-1 in NTS recently.
Carefully examining the amino acid sequence of pladin (SEQ ID NO: 23), it has several putative cleavage sites by plasmin (FIG. 11A).

Chain of plasmin (P00747 581-810 limits assumed, species assumed): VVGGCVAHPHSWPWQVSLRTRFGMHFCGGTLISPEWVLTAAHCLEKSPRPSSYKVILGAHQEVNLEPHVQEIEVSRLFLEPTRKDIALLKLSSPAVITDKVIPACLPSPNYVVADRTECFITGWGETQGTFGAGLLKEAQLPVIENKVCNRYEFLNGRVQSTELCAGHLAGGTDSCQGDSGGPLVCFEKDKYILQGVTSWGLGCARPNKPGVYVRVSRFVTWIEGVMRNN
Chain of plasmin (P00747 97-580 partner limits assumed, species assumed): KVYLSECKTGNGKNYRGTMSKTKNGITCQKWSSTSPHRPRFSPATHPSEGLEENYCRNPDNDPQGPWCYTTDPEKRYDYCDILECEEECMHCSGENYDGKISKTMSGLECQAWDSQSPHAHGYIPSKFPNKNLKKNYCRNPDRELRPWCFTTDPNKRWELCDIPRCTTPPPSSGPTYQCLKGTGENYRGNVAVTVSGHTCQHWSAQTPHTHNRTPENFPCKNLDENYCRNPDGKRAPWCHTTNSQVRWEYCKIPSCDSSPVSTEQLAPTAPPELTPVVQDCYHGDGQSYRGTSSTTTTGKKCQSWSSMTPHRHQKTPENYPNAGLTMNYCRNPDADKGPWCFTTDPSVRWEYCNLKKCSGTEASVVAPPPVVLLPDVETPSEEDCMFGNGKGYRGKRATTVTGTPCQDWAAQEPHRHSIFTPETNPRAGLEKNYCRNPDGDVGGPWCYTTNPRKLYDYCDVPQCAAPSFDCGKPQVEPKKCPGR

ANAEDIKSGKLSQELDFVSH (amino acids by MALDI-TOF/TOF with Trypsic Peptides) [SEQ ID NO:24, synthetic 20 amino acids peptide, a portion of NUCB1]
anti-hyperglycemic effect (blood glucose) (db/db mice): anti-hyperglycemic

ADIEEIRSGR LSQELDLVSH (ADIEEIRSGRLSQELDLVSH; A synthetic peptide which was the C-terminal portion of pladin) [SEQ ID NO:22, synthetic 20 amino acids peptide, C-terminal portion of pladin]
anti-hyperglycemic activity, fold less than rPladin (db/db mice; i.v., db/db mice): more than 3 fold | anti-hyperglycemic effect (blood glucose) (db/db mice): anti-hyperglycemic

B1: TKVHNTEPVENARIEPPDTGLYYDEYAALETDPHFREKLQKADIEEIRSGRLSQELDLVSHKVR (protein)
chain: TKVHNTEPVENARIEPPDTGLYYDEYAALETDPHFREKLQKADIEEIRSGRLSQELDLVSHKVR
modifications: amino acid sequence of Mutant A92
active duration of anti-hyperglycemic effect in vivo (db/db mice): > 12 h

B2: VPVDRAAPPQEDSQATETPDTGLYYHRYLQEVINVLETDGHFREKLQAANAEDIKSGKLSQELDFVSHNVRTKLDELK (protein)
chain: VPVDRAAPPQEDSQATETPDTGLYYHRYLQEVINVLETDGHFREKLQAANAEDIKSGKLSQELDFVSHNVRTKLDELK
modifications: amino acids recombinant peptide of NUCB1
notes: 78 amino acids recombinant peptide, N-terminal portion of NUCB1
molar anti-hyperglycemic activity, fold higher than rPladin or nesfatin-1 (db/db mice; i.v., db/db mice, within 3 hours): at least 2 fold | active duration, fold less than rPladin or nesfatin-1 (db/db mice; in vivo): at least 2 fold | anti-hyperglycemic effect (blood glucose) (db/db mice): anti-hyperglycemic

B3: A4: pladin mutant A4 (Lys28→Ala) (protein)
peptide: TKVHNTEPVENARIEPPDTGLYYDEYLAQVIEVLETDPHFREKLQKADIEEIRSGRLSQELDLVSHKVR
proteolysis by plasmin (plasmin): resistant to plasmin proteolysis | active duration of anti-hyperglycemic effect in vivo (db/db mice): 18 h

B4: TKVHNTEPVENARIEPPDTGLYYDEYAKAAAAALETDPHFREKLQKADIEEIRSGRLSQELDLVSHKVR (protein)
chain: B3 peptide with L27A, A28K, Q29A, V30A, I31A, E32A, V33A
modifications: amino acid sequence of Mutant A90
active duration of anti-hyperglycemic effect in vivo (db/db mice): > 24 h

B5: acetylated rPladin: rPladin acetylated with N-acetylimidazole; three Tyr and three Lys residues modified (protein)
peptide: B3 peptide with A28K
modifications: also: three Tyr and three Lys acetylated with N-acetylimidazole
notes: rPladin acetylated with N-acetylimidazole; three Tyr and three Lys residues modified
proteolysis by plasmin (plasmin): resistant to the proteolysis by plasmin | active duration of anti-hyperglycemic effect in vivo (db/db mice): 12 h | anti-hyperglycemic activity compared with reference peptide (db/db mice; i.v., db/db mice): unchanged

B6: A5: pladin mutant A5 (Lys13→Ala as printed; Arg13 in sequence) (protein)
peptide: B3 peptide with R13A, A28K
proteolysis by plasmin (plasmin): resistant to plasmin proteolysis | active duration of anti-hyperglycemic effect in vivo (db/db mice): 12 h

B7: TKVHNTEPVENARIEPPDTGLYYDEYSAAAALETDPHFREKLQKADIEEIRSGRLSQELDLVSHKVR (protein)
chain: TKVHNTEPVENARIEPPDTGLYYDEYSAAAALETDPHFREKLQKADIEEIRSGRLSQELDLVSHKVR
modifications: amino acid sequence of Mutant A91
active duration of anti-hyperglycemic effect in vivo (db/db mice): > 24 h
